Some targets named below: cKit(D816V) (h) (human) (UniProt P10721); CK1γ2 (h) (human) (UniProt P78368); WNK3 (h) (human) (UniProt Q9BYP7); HIPK3 (h) (human) (UniProt Q9H422); Ros (h) (human) (UniProt P08922); ALK (h) (human) (UniProt Q9UM73); Met (h) (human) (UniProt P08581); MAPK2 (h) (human) (UniProt P28482); CSK (h) (human) (UniProt P41240); Aurora-B (h) (human) (UniProt Q96GD4).
Assay in all cases: cell-based or functional assay
For another test, the target named is T1, Flt3(D835Y) (h) (human) (UniProt P36888).
T1 sequence (looked up): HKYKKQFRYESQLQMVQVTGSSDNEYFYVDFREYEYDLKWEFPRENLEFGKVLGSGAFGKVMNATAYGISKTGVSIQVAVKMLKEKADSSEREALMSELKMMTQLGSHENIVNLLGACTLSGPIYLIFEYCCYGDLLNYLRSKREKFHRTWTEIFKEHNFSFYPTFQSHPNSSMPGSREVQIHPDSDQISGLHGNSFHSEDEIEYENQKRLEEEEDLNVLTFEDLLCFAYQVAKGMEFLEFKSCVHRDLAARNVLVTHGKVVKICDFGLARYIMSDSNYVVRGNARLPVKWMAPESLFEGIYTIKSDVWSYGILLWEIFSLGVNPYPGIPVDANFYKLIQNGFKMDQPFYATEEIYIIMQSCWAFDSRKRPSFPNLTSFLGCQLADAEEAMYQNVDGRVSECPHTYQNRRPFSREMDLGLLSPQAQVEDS

In another test the target is T2, SGK3 (h) (human) (UniProt Q96BR1).
T2 sequence (looked up): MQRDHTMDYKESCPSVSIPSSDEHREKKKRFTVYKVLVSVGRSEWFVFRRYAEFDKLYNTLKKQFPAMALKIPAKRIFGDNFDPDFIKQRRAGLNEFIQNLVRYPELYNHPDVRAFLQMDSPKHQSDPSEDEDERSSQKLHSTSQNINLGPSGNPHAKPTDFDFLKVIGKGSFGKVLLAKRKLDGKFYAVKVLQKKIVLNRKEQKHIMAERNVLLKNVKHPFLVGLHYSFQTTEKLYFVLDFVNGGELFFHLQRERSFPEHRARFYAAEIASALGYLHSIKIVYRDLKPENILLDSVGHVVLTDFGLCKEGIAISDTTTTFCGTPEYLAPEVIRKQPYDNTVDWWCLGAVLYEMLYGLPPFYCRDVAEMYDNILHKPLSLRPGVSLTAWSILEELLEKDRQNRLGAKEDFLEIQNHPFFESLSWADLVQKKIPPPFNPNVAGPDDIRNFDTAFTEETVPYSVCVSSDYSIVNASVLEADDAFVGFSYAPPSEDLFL

The target of another test is T3, PKCµ (h) (human) (UniProt Q15139).
T3 sequence (looked up): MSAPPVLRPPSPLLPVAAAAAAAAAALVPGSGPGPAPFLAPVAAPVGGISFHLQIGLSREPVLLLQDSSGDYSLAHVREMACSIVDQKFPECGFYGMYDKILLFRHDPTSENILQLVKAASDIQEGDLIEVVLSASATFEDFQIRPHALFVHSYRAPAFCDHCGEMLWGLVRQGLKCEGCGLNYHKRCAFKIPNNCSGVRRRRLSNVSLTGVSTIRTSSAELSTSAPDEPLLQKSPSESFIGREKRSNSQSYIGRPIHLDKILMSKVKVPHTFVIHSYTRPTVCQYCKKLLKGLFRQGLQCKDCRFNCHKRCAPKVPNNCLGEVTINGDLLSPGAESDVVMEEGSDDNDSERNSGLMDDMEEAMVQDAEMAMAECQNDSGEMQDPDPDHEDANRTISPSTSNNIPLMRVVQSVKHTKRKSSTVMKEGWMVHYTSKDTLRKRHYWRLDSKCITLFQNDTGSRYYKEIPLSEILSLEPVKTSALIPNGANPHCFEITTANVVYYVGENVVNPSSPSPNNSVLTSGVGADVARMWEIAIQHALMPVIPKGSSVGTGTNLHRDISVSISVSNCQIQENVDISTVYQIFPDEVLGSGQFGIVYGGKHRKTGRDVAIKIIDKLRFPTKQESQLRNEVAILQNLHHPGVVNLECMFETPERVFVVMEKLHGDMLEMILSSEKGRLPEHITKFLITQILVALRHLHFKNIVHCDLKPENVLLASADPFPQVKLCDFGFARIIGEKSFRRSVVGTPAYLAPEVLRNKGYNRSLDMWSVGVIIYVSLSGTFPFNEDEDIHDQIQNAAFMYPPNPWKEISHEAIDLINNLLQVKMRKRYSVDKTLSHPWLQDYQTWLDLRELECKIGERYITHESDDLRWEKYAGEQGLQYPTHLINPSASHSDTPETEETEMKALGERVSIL

Met (h) (human), sequence (P08581 956-1390 limits assumed): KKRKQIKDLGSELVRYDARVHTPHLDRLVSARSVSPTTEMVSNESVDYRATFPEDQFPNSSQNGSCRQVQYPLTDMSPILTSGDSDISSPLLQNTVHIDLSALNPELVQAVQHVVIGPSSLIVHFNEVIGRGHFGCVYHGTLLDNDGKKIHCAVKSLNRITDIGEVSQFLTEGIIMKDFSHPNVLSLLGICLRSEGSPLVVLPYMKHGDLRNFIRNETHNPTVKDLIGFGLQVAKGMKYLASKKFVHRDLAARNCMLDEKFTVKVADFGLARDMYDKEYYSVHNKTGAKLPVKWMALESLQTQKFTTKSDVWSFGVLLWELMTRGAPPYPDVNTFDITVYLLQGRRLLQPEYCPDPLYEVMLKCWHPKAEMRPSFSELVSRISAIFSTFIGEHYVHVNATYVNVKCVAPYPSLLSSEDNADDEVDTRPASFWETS
Ros (h) (human), sequence (P08922 1883-2347 limits assumed): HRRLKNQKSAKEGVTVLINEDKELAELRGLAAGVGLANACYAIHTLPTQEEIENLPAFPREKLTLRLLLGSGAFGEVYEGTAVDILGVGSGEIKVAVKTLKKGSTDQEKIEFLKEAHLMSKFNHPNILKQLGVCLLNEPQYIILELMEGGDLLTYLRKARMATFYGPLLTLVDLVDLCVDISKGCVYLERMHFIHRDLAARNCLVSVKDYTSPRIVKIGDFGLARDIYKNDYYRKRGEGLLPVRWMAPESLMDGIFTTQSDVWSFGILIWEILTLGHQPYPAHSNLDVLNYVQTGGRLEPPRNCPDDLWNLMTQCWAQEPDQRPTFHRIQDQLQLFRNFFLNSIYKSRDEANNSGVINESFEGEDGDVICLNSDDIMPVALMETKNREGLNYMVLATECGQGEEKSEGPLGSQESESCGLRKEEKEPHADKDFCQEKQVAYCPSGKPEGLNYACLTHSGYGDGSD
MAPK2 (h) (human), sequence (P28482 whole entry): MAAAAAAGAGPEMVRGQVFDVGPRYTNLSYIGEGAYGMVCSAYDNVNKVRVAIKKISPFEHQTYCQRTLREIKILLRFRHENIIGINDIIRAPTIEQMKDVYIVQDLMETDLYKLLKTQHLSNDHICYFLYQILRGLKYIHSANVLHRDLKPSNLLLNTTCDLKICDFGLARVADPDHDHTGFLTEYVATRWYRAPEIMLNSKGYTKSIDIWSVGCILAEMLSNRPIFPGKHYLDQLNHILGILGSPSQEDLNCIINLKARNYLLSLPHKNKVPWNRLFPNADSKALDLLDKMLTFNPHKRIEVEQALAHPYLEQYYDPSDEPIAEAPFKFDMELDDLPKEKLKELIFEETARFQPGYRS
cKit(D816V) (h) (human), sequence (P10721 544-976 D816V): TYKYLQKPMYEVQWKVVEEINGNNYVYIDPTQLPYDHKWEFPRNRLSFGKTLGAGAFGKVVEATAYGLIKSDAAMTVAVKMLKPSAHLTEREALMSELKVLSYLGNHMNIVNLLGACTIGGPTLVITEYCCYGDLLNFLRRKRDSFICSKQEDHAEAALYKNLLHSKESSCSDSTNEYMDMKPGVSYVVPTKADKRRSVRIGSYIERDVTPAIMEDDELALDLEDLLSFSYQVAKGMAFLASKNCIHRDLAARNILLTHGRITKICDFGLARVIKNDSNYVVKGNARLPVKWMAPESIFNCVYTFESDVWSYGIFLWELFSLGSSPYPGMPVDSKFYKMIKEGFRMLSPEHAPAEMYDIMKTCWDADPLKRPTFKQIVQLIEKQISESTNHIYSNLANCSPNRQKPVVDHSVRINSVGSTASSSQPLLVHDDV
Aurora-B (h) (human), sequence (Q96GD4 whole entry): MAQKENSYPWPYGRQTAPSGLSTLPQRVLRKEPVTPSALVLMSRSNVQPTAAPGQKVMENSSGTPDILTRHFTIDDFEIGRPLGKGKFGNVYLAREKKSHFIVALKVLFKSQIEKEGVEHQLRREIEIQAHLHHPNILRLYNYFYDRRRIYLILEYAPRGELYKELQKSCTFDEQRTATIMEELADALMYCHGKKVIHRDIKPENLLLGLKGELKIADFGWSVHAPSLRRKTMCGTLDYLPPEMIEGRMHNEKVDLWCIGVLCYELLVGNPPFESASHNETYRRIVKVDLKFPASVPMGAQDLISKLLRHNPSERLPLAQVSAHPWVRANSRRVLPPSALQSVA

Turning to MMI-0300 (peptide), the % activity at 100 µM with Flt3(D835Y) (h) (human) was 80%; with cKit(D816V) (h) (human) it was 60%; with CK1γ2 (h) (human), 123%; with WNK3 (h) (human) it was 77%; with SGK3 (h) (human), 10%; with HIPK3 (h) (human), 93%. Besides, the % activity at 100 µM in the test with Ros (h) (human) turned out to be 95%; in the test with ALK (h) (human) it was 19%; in the test with Met (h) (human) it was 65%; in the test with PKCµ (h) (human), 22%; with MAPK2 (h) (human), 98%; with CSK (h) (human), 49%. The % activity at 100 µM with Aurora-B (h) (human) was 128%.

For the origin of these results see patent publication US20160136234A1.
